Source: publication PMC12212259, “Evaluation of AlphaFold modeling for elucidation of nanobody–peptide epitope interactions” (The Journal of Biological Chemistry, 2025)
Values belong to the binder of their own block, whether it stands above or below them.

Legend:
[1] = biological target: T1, 6E-WT peptide (Homo sapiens UBE2J1 (UBC6e; synthetic …, UniProt Q9Y385); assay: SPR; biotinylated Nb (1 uM) captured on a streptavidin (SA) chip to about 2000 RU; peptide as analyte, 50 ul/min, 60 s contact, 120 s dissociation; 1X PBS pH 7.4 plus 0.05% P20; Biacore T200; 1:1 kinetics binding model, local fittings; settings: both partners purified
T1 construct: Leu at position 9; numbers count on: the peptide; the printed E5 and L9 fit this; also called 6E-L9 (WT); 6E peptide; source: synthetic peptide
T1 chain: QADQEAKELARQIS

[2] = biological target: T1, 6E-WT peptide; assay: flow cytometry on cells; competition: HEK293 cells stably expressing A2AR-Nb6E-ALFA with unlabeled variant 6E peptides (10–0.01 uM) and 10 nM FAM-6E-C14 for 30 m in 2% BSA in PBS; antifluorescein antibody-AF647; median fluorescence intensity; settings: one partner purified
[3] = biological target: T2, 127-tag peptide (Homo sapiens CXCR2 (synthetic peptide)); assay: SPR; biotinylated Nb (1 uM) captured on a streptavidin (SA) chip to about 2000 RU; peptide as analyte, 50 ul/min, 60 s contact, 120 s dissociation; 1X PBS pH 7.4 plus 0.05% P20; Biacore T200; 1:1 kinetics binding model, local fittings; settings: both partners purified
T2 construct: numbers count on: the peptide; the printed residues Ser1', Phe2', Glu3', Phe5', Trp6', Lys7', Asp10' fit this; source: synthetic peptide
T2 chain: SFEDFWKGED

- binding result [1]: binds
B1: Nb6E-biotin (VHH)
VHH: QVQLQESGGGLVQPGGSLRLSCAASGFVFENSAMAWYRQAPGKERELIAVIGTTFIKLAESVKGRFTISRDNAKSTVYLQMNNLKPEDTAVYYCSKSGAYWGQGTQVTVSS
notes: as the chain of m13; Sortagging probably removes the His6 tag; also called biotinylated Nb6E; source: bacterial expression (pET26b, pelB), purified; labelled by sortagging (Sortase 5M), Ni-NTA and PD10

- binding result [2]: binds
B2: A2AR-Nb6E-ALFA (VHH)
VHH: QVQLQESGGGLVQPGGSLRLSCAASGFVFENSAMAWYRQAPGKERELIAVIGTTFIKLAESVKGRFTISRDNAKSTVYLQMNNLKPEDTAVYYCSKSGAYWGQGTQVTVSS
notes: as the chain of m13 (Nb6E); also called cell surface protein fused with Nb6E; source: HEK293 cells, stably expressing, on cells

- Kd [3]: 14 nM
B3: Nb127–biotin (VHH)
VHH: EVQLVESGGGLVQAGESLRLSCAASGSTFDFKVMGWYRQPPGKQREGVAAIRLSGNMHYAESVKGRFAISKANAKNTVYLQMNSLRPEDTAVYYCKVNIRGQDYWGQGTQVTVSS
notes: as the chain of m1; Sortagging probably removes the His6 tag; also called biotinylated Nb127; source: bacterial expression (pET26b, pelB), purified; labelled by sortagging (Sortase 5M), Ni-NTA and PD10
